Here are results for four substances from paper PMC2731525.

This test addresses biglycan (UniProt P21810). Nature of the test: solid-phase binding assay.
UniProt P21810, sequence (P21810 38-368): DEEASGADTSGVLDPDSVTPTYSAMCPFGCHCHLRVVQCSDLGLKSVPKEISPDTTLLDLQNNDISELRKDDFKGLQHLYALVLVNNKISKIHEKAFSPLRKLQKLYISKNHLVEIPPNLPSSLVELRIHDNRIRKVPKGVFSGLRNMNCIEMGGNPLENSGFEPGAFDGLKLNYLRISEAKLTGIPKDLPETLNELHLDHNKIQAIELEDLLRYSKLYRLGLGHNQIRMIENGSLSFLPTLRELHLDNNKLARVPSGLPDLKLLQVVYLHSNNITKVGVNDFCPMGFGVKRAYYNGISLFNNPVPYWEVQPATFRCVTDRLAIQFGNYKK
Broadly, the Kd is the constant that tells how readily two partners part at equilibrium. A higher Kd goes with a looser complex. “apoCIII-free LDL isolated from diabetic LDL with high apoCIII/apoB molar ratio (natural protein)” came in with a Kd of 9.8 nM.

“LDL with high apoCIII from patients with type 2 diabetes (from UniProt P02656 21-99) (complex)”: the dissociation constant (Kd) turned out to be 8.6 nM.

“apoCIII-free LDL isolated from diabetic LDL with low apoCIII/apoB molar ratio (natural protein)” returned a Kd of 12.8 nM.

For the substance “LDL with low apoCIII from patients with type 2 diabetes (from UniProt P02656 21-99) (complex)”, the dissociation constant (Kd) came to 12.2 nM.
